From patent US20160311919A1

Tests used:
[1] = biological target: GPNMB-V5His (recombinant human GPNMB extracellular domain with C-terminal V5-His tag) (human) (UniProt Q14956); assay: SPR (Biacore), mAb on protein A, GPNMB 880 nM
[2] = biological target: GPNMB-V5His (recombinant human GPNMB extracellular domain with C-terminal V5-His tag) (human) (UniProt Q14956); assay: ELISA, coated GPNMB, Ab 1 ug/mL
[3] = biological target: GPNMB-V5His (recombinant human GPNMB extracellular domain with C-terminal V5-His tag) (human) (UniProt Q14956); assay: ELISA, coated GPNMB, Ab 3 ug/mL
[4] = biological target: GPNMB-V5His (recombinant human GPNMB extracellular domain with C-terminal V5-His tag) (human) (UniProt Q14956); assay: ELISA, coated GPNMB, Ab 37 ng/mL
[5] = biological target: GPNMB-V5His (recombinant human GPNMB extracellular domain with C-terminal V5-His tag) (human) (UniProt Q14956); assay: ELISA, coated GPNMB, Ab 111 ng/mL
[6] = biological target: GPNMB-V5His (recombinant human GPNMB extracellular domain with C-terminal V5-His tag) (human) (UniProt Q14956); assay: ELISA, coated GPNMB, Ab 333 ng/mL
[7] = biological target: GPNMB-V5His (recombinant human GPNMB extracellular domain with C-terminal V5-His tag) (human) (UniProt Q14956); assay: ELISA, coated GPNMB, Ab 12.3 ng/mL

| Binder | Kd [1] [nM] | koff [1] [s⁻¹] | kon [1] [M⁻¹ s⁻¹] | Avg OD [2] [OD] | Avg OD [3] [OD] | Avg OD [4] [OD] | Avg OD [5] [OD] | Avg OD [6] [OD] | Avg OD [7] [OD] |
| --- | --- | --- | --- | --- | --- | --- | --- | --- | --- |
| 2-7 (hybridoma of Table 6) (antibody, V domains shown) VH: QVQLEQSGGGVVQPGRSLRLSCAASGFTFNNYGMHWVRQAPGKGLEWVAVIWYDGSNKYYADSVKGRFTISRDNSKNTLYLQMNSLRAEDTAVYYCAKDEEYYYVSGLDYWGQGTLVTVSS VL: LTQSPSSLSASVRDRVTITCRASQDISNYLAWYQQKPGKVPNLLIYAASTLQSGVPSRFSGSGSGTDFTLTISSLQPEDVATYYCQKYNSAPLTFGGGTKVEIKR |  |  |  | 0.719 | 0.827 | 0.308 | 0.494 | 0.68 | 0.156 |
| 2-15 (hybridoma of Table 6) (antibody, V domains shown) VH: QVQLVESGGGVVQPGRSLRLSCAASGFTFSNYGIHWVRQAPGKGLEWVAVIWFDGRNKYYADSVKGRFTISRDNSKNTLYLQMNSLRAEDAAVYYCARDPFDYGDSFFDYWGQGTLVTVSS VL: LTQSPSSLSASVRDRVTITCRASQDISNYLAWYQQKPGKVPNLLIYAASTLQSGVPSRFSGSGSGTDFTLTISSLQPEDVATYYCQKYNSAPLTFGGGTKVEIKR |  |  |  | 0.568 | 0.601 | 0.246 | 0.395 | 0.578 | 0.127 |
| 2-16 (hybridoma of Table 6) (antibody, V domains shown) VH: QVQLVESGGGLVKPGGSLRLSCAASGFTFSDYYMTWIRQAPGKGLEWVSYISISGSITHYADSVKGRFTMSRDNAKNSLYLQMNSLRAEDTAVYYCARDGAAAGTDAFDIWGHGTKVTVSS VL: EIVMTQSPATLSVSPGDRATLSCRASQNVSSNLAWYQQKPGQAPRLLIFGASTRATGIPARFSGSGSGTEFTLTISSLQSEDFAVYYCQQYHYWPTFGPGTKVDIKR |  |  |  | 0.173 | 0.359 | 0.017 | 0.032 | 0.068 | 0.011 |
| 2-17 (hybridoma of Table 6) (antibody, V domains shown) VH: QLVQSGAEVKKPGASVKVSCKASGYTFTGFYMHWVRQTPGQGLEWMGWINPNSGGTYYVQKFQGRVTMTRDTSISTVYMELSRLRSDDTAVYYCARDGYSSGEDWFDPWGQGTLVTVSS VL: DIVMTQTPLSLSVTPGQPASISCKSSQSLLHSGGKTYLYWYLQRPGQPPQLLIYEVSNRFSGVPDRFSGSGSGTDFTLKISRVEAEDVGVYYCMQSIHLPLTFGGGTKVEIKR |  |  |  | 0.019 | 0.053 | 0.008 | 0.009 | 0.01 | 0.011 |
| 1.7.3 (antibody, V domains shown) VH: QVQLQESGPGLVKPSQTLSLTCTVSGGSISSANYYWTWIRQHPGKGLEWIGYIYYSGSTYCNPSLKSRVIISVDTSKNQFSLKLSSVTAADTAVYYCARGYNWNYFDYWGQGTLVTVSS VL: DIVMTQSPATLSVSPGERATLSCRASQSVSSNLAWYQERPGQAPRLLIYGASTRATGIPARFSGSGSGTEFTLTISSLQSEDFAVYYCQQYNKWPPWTFGQGTKVEIER | 121 | 0.00117 | 9650 | 0.871 | 1 | 0.239 | 0.451 | 0.76 | 0.094 |

Results, then the binder that gave them:

| Kd [1] [nM] | koff [1] [s⁻¹] | kon [1] [M⁻¹ s⁻¹] | Avg OD [2] [OD] | Avg OD [3] [OD] | Avg OD [4] [OD] | Avg OD [5] [OD] | Avg OD [6] [OD] | Avg OD [7] [OD] | Binder |
| --- | --- | --- | --- | --- | --- | --- | --- | --- | --- |
| 118 | 0.000466 | 3960 |  |  |  |  |  |  | Mab1.10.2 (antibody, human IgG2, V domains shown) VH: QVQLQESGPGLVKPSETLSLTCTVSGDSISNYYWSWIRQPPGKGLEWIGYFYYSGSTNYNPSLKSRVTISVDTSKNQFSLKLSSVTAADTAVYYCARDRGWADYWGQGTLVTVSS VL: EIVLTQSPGTLSLSPGERATLSCRTSQSISSSYLAWYQQKPGQVPRLLIYGASSRATGIPDRFSGSGSGTDFTLTISRLEPEDFAVYYCQQYGSSITFGQGTRLEIKR |
| 209 | 0.000885 | 4240 |  |  |  |  |  |  | GPNMB antibody (1.10.1) (antibody, V domains shown) VH: QVQLQESGPGLVKPSETLSLTCTVSGDSISNYYWSWIRQPPGKGLEWIGYFYYSGSTNYNPSLKSRVTISVDTSKNQFSLKLSSVTAADTAVYYCARDRGWADYWGQGTLVTVSS VL: EIVLTQSPGTLSLSPGERATLSCRTSQSISSSYLAWYQQKPGQVPRLLIYGASSRATGIPDRFSGSGSGTDFTLTISRLEPEDFAVYYCQQYGSSITFGQGTRLEIKR |
|  |  |  | 0.707 | 0.714 | 0.171 | 0.355 | 0.538 | 0.068 | 2-22 (hybridoma of Table 6) (antibody, V domains shown) VH: QVQLEQSGPGLVKPSQNLSLTCTVSGGSISSGGYFWSWIRQHPGKGLEWIGYIYYSGNTYYNPSLKSRVTISVDTSKNQFSLKLSSVTAADTAVYYCARDYYYDTSGFSYRYDWYYGMDVWGQGTTVTVSS VL: DIQLTQSPSSLSASVGDRVTITCRASQGIRNDLGWYQQKPGKAPKRLIYAASSLQNGVPSRFSGSGSGTEFTLTISSLQPEDFATYYCLQHNTYPAFGQGTKVEIKR |
| 96 | 0.00089 | 9260 | 0.499 | 0.763 | 0.094 | 0.199 | 0.356 | 0.049 | Mab1.2.2 (antibody, human IgG2, V domains shown) VH: ITLKESGPTLVKPTQTLTLTCTFSGFSLSAGGVGVGWIRQPPGKALEWLALIYWNDDKRYSPSLRSRLTITKDTSKNQVVLTITNMDPVDTATYYCAHSHYDYDWGSYFDYWGQGTLVTVSS VL: DIVMTQTPLSLPVTPGEPASISCRSSQSLLDSDDGNTYLDWYLQKPGQSPQLLIYTLSYRASGVPDRFSGSGSGTDFTLNISRVEAEDVGVYYCMQRIEFPITFGQGTRLEIKR |
| 122 | 0.00144 | 11800 |  |  |  |  |  |  | Mab1.7.1 (antibody, human IgG2, V domains shown) VH: QVQLQESGPGLVKPSQTLSLTCTVSGGSISSANYYWTWIRQHPGKGLEWIGYIYYSGSTYCNPSLKSRVIISVDTSKNQFSLKLSSVTAADTAVYYCARGYNWNYFDYWGQGTLVTVSS VL: DIVMTQSPATLSVSPGERATLSCRASQSVSSNLAWYQERPGQAPRLLIYGASTRATGIPARFSGSGSGTEFTLTISSLQSEDFAVYYCQQYNKWPPWTFGQGTKVEIER |
